Data on two sequences can be found in US20140072613A1, “Compositions and Methods for Treating Cutaneous Scarring” (priority 2012, published 2014).

What all share (assay): biochemical
Common to all, as to type: biochemical

For test [1], the target named is 266 human kinases (Homo sapiens, UniProt P49761). As to conditions: CLK3(h); 100 μM. In a few lines: (§1)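 Read-out by scintillation counting of radiolabelled, positively charged substrate bound to negatively charged filter; activity normalised to 100% control. Phosphate transferred from radiolabelled ATP.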
Chain of 266 human kinases (Homo sapiens, UniProt P49761) (P49761 whole entry): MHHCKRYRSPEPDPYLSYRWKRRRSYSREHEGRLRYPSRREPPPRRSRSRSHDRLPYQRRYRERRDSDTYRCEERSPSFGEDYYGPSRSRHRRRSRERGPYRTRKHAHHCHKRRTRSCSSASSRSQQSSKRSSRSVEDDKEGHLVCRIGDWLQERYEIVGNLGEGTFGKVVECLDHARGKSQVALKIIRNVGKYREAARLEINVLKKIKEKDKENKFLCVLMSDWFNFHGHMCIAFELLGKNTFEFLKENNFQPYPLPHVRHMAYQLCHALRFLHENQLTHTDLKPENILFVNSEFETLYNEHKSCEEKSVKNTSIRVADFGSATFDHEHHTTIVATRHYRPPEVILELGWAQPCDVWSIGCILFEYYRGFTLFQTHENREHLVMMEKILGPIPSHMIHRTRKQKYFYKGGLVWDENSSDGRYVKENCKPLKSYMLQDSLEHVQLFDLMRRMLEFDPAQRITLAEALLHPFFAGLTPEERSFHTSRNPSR
Test [2] deals with 266 human kinases (Homo sapiens, UniProt Q00535). The note with it: 100 μM. In a few lines:
as §1

Test [3] addresses 266 human kinases (Homo sapiens, UniProt P80192). As to conditions: MLK1(h); 100 μM. Summed up: as §1
Test [4] has as its target T1, 266 human kinases (Homo sapiens, UniProt Q13976).
T1 sequence (Q13976 1-671): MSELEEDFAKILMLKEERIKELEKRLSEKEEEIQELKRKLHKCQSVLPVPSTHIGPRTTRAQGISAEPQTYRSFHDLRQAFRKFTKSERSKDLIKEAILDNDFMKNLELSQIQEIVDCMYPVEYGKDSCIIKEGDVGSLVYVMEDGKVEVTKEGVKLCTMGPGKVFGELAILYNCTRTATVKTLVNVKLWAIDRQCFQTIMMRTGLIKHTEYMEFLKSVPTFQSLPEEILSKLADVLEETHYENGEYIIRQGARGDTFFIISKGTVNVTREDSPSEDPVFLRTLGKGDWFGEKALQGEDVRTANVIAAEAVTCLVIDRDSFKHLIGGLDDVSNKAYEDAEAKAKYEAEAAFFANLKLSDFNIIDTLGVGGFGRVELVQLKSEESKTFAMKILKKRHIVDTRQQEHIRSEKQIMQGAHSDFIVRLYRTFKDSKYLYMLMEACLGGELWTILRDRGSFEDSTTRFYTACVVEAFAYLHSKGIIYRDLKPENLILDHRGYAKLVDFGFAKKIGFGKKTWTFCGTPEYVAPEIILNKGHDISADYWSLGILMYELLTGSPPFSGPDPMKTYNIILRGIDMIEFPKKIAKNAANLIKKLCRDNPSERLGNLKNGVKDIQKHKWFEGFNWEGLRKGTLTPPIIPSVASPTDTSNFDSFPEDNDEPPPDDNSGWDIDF
As to conditions: PKG1α(h); 100 μM. In a few lines:
as §1

Test [5] deals with 266 human kinases (Homo sapiens, UniProt P15735). The note with it: PhKγ2(h); 100 μM. In a few lines:
as §1

Test [6] has as its target T2, 266 human kinases (Homo sapiens, UniProt Q9UHD2).
T2 sequence (Q9UHD2 1-729): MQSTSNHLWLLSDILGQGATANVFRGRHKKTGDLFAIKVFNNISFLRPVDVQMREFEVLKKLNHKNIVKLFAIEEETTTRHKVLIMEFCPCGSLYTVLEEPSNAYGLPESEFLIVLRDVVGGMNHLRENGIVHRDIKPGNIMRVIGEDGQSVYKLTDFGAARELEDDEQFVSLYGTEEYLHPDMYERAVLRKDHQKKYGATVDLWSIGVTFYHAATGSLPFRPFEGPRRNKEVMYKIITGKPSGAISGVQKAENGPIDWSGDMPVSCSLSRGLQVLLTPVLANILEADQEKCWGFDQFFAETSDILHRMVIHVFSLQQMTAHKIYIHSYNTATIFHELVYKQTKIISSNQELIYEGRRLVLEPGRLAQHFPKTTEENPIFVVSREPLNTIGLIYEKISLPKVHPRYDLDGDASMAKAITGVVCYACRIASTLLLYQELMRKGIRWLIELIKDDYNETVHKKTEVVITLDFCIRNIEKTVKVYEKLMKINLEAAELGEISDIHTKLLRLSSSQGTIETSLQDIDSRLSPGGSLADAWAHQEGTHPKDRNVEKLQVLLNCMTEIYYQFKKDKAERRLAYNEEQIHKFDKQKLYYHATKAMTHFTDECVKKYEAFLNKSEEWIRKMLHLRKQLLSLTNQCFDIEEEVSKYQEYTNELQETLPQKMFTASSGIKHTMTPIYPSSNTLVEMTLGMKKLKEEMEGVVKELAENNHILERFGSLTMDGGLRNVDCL
As to conditions: TBK1(h); 100 μM. In a few lines: as §1

The target in test [7] is 266 human kinases (Homo sapiens, UniProt P14616). The note with it: IRR(h); 100 μM. Summed up: as §1
In test [8] the target is 266 human kinases (Homo sapiens, UniProt Q92630). As to conditions: DYRK2(h); 100 μM. In a few lines: as §1
Chain of 266 human kinases (Homo sapiens, UniProt Q92630) (Q92630 whole entry): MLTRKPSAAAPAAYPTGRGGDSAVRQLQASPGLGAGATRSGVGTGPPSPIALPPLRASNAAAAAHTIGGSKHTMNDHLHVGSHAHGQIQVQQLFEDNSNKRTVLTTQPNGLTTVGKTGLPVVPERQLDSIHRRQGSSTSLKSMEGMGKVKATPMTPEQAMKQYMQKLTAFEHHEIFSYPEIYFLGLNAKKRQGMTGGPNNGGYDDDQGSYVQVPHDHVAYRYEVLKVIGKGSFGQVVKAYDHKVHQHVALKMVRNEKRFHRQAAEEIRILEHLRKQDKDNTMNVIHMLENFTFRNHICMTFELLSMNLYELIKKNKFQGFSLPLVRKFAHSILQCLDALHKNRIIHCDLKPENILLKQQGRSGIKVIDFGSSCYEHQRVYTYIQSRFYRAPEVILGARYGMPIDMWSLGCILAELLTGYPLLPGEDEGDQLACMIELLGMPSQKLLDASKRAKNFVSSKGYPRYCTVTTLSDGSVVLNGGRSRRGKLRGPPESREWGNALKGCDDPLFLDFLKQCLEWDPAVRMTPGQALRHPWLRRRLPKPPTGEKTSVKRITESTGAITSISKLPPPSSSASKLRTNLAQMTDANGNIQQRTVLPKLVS
In test [9] the target is 266 human kinases (Homo sapiens, UniProt Q9UK32). As to conditions: Rsk4(h); 100 μM. In a few lines:
as §1

For test [10], the target named is 266 human kinases (Homo sapiens, UniProt P07949). The note with it: Ret(h); 100 μM. Summed up:
as §1

The target in test [11] is 266 human kinases (Homo sapiens, UniProt Q9P1W9). As to conditions: Pim-2(h); 100 μM. In a few lines: as §1
The target of test [12] is 266 human kinases (Homo sapiens, UniProt P68400). The note with it: CK2(h); 100 μM. Summed up: as §1
Chain of 266 human kinases (Homo sapiens, UniProt P68400) (P68400 whole entry): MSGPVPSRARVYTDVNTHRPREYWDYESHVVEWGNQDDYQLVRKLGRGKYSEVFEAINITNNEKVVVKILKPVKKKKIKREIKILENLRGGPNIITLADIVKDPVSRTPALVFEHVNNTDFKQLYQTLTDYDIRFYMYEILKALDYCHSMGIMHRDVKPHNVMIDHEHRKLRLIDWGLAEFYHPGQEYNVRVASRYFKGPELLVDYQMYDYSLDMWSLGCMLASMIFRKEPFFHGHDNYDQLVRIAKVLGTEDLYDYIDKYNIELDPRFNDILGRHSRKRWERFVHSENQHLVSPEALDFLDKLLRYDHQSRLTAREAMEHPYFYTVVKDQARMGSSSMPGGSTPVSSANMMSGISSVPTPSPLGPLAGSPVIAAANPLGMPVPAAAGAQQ
Test [13] deals with 266 human kinases (Homo sapiens, UniProt P53779). As to conditions: JNK3(h); 100 μM. Summed up:
as §1

Test [14] deals with 266 human kinases (Homo sapiens, UniProt P08581, Y1230C). As to conditions: Met(Y1248C)(h); 100 μM. In a few lines:
as §1

Test [15] has as its target 266 human kinases (Homo sapiens, UniProt Q15759). The note with it: SAPK2b(h); 100 μM. In a few lines: as §1
The target of test [16] is 266 human kinases (Homo sapiens, UniProt P05771). The note with it: PKCβI(h); 100 μM. In a few lines: as §1
Test [17] has as its target 266 human kinases (Homo sapiens, UniProt P42685). The note with it: PTK5(h); 100 μM. In a few lines:
as §1

Chain of 266 human kinases (Homo sapiens, UniProt Q00535) (Q00535 whole entry): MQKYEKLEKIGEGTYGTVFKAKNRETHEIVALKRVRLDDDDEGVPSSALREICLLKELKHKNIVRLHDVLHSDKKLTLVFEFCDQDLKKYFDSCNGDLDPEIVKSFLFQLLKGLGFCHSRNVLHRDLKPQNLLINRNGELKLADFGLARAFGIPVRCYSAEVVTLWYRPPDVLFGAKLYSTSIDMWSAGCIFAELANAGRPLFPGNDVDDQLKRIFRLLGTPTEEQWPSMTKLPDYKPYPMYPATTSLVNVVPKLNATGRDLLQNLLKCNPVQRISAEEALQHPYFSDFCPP
Chain of 266 human kinases (Homo sapiens, UniProt P15735) (P15735 whole entry): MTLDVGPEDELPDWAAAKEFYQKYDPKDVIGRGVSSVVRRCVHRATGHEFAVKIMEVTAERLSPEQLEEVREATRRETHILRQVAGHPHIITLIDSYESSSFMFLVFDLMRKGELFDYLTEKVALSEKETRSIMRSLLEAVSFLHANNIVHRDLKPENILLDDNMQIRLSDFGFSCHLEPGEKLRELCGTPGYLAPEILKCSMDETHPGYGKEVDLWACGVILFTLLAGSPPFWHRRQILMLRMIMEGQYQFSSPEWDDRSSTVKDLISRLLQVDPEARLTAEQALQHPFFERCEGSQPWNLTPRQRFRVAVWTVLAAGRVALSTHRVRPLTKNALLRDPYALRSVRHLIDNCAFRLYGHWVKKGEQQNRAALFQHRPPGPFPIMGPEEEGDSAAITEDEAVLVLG
Chain of 266 human kinases (Homo sapiens, UniProt Q9UK32) (Q9UK32 whole entry): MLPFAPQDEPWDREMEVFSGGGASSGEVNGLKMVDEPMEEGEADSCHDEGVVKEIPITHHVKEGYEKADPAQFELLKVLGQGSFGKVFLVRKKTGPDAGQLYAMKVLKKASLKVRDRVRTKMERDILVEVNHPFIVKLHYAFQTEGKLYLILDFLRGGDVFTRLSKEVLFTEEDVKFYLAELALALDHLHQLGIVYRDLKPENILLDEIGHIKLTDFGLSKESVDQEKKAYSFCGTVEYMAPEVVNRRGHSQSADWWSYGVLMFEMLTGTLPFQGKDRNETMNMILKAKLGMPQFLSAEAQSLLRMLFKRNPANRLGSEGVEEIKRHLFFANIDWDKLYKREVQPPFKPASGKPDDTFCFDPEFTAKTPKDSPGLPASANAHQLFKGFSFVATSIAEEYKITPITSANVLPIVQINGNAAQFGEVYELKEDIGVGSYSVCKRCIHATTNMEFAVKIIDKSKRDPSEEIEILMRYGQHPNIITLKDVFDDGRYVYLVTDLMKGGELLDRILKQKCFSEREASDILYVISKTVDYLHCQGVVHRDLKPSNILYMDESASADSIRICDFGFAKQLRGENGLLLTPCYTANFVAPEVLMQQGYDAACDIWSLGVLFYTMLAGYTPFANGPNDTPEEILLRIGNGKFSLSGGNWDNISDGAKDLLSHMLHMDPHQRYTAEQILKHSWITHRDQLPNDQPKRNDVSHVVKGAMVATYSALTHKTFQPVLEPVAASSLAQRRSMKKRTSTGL
Chain of 266 human kinases (Homo sapiens, UniProt P42685) (P42685 whole entry): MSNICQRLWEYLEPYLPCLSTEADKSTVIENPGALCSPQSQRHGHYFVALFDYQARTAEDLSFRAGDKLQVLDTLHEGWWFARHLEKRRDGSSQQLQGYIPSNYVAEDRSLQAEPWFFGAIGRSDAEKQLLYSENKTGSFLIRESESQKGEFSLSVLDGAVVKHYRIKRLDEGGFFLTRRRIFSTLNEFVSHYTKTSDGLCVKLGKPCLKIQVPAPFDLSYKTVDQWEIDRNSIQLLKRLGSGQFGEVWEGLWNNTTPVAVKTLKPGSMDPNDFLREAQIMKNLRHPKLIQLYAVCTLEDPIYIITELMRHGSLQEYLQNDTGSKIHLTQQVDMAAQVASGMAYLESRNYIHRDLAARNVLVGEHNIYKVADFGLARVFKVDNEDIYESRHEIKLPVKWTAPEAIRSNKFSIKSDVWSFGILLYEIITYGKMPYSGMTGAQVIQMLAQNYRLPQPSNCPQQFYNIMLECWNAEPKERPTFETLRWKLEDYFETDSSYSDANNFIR
Chain of 266 human kinases (Homo sapiens, UniProt P80192) (P80192 whole entry): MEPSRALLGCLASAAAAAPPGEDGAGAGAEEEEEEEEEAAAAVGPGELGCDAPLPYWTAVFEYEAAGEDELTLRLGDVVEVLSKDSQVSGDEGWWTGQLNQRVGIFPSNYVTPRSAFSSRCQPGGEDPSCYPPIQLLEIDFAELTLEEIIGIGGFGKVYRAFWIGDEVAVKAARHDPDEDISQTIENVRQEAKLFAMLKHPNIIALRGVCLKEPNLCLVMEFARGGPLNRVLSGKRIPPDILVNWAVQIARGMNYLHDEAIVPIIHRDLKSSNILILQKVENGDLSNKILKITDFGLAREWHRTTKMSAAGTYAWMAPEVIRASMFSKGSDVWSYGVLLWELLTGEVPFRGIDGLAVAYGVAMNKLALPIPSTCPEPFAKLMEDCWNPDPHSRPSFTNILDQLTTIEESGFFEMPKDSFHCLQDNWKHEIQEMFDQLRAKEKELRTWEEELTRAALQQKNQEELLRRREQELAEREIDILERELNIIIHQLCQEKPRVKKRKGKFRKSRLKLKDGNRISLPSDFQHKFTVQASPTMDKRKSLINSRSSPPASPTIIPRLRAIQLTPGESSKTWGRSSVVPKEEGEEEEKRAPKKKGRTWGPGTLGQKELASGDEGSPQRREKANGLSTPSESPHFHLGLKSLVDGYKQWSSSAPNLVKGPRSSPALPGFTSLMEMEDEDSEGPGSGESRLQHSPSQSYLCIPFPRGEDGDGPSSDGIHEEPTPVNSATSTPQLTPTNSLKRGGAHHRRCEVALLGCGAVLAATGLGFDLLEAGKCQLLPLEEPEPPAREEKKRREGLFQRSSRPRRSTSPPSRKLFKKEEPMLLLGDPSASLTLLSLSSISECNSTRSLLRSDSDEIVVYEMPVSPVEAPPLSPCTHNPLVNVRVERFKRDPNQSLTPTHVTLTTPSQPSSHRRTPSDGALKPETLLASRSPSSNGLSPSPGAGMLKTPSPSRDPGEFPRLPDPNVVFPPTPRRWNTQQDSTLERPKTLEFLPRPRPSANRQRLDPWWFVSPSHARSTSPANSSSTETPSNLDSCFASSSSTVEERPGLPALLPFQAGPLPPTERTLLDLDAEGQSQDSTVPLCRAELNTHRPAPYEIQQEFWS
Chain of 266 human kinases (Homo sapiens, UniProt Q15759) (Q15759 whole entry): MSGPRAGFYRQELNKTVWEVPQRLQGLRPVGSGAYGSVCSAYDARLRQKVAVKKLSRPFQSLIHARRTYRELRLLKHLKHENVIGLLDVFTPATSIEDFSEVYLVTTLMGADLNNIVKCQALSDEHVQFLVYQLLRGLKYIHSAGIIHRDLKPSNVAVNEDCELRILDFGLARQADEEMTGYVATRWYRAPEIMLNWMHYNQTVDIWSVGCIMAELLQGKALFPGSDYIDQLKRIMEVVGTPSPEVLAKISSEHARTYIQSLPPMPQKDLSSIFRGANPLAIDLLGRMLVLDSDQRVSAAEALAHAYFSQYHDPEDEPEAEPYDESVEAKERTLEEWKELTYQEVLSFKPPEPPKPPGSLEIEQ

Turning to “HRRIKAWLKKIKALARQLGVAA (mammal) [MMI-0500]”, the “% activity” value was 76% with 266 human kinases [1]; 66% in the test with 266 human kinases [2] (CDK5/p25(h)); 59% in the test with 266 human kinases [2] (CDK5/p35(h)); 43% in the test with 266 human kinases [3]; 25% with 266 human kinases [4]; 16% in the test with 266 human kinases [5]. Besides, the “% activity” value was determined as 16% with 266 human kinases [6]; 10% in the test with 266 human kinases [7]; 127% in the test with 266 human kinases [8]; 29% with 266 human kinases [9]; 174% in the test with 266 human kinases [10]; 46% in the test with 266 human kinases [11]. Further, the “% activity” value worked out at 93% in the test with 266 human kinases [12]; 171% with 266 human kinases [13]; 73% with 266 human kinases [14]; 42% with 266 human kinases [15]; 1% with 266 human kinases [16]; 96% with 266 human kinases [17].

Turning to “YARAAARQARAKALNRQLGVA (mammal) [MMI-0200]”, the “% activity” value was 76% in the test with 266 human kinases [1]; 97% with 266 human kinases [2] (CDK5/p25(h)); 92% with 266 human kinases [2] (CDK5/p35(h)); 84% with 266 human kinases [3]; 70% with 266 human kinases [4]; 86% with 266 human kinases [5]. The “% activity” value came out at 98% with 266 human kinases [6]; 69% in the test with 266 human kinases [7]; 142% with 266 human kinases [8]; 125% with 266 human kinases [9]; 96% with 266 human kinases [10]; 74% with 266 human kinases [11]. Moreover, the “% activity” value with 266 human kinases [12] is reported as 83%; with 266 human kinases [13], 90%; in the test with 266 human kinases [14], 141%; with 266 human kinases [15] it was 95%; in the test with 266 human kinases [16] it was 98%; with 266 human kinases [17], 108%.
